“And” between values parts separate entries of the source, which are not always exact repeats. Identical values can stand only once.
Experiments:
[1] = target: GST tagged FgαCC8, P02671-2; assay: ELISA; details: 5 μM GST tagged FgαCC8 added to coated wells (1 μM/well); parent: est. 100; read off a plot
D1066A and E1088A = assay: ELISA; LigB12 WT, mutants or BSA coated (1 μM/well); 5 μM GST-FgαCC8; anti-GST-HRP; relative binding (%) against WT
[2] = target: LigB12 D1061N (Leptospira interrogans serovar Pomona); assay: as above
[3] = target: LigB12 A1065K (Leptospira interrogans serovar Pomona); assay: as above
[4] = target: LigB12 F1054A (Leptospira interrogans serovar Pomona); assay: as above
[5] = target: LigB12, tag free (12th Ig-like domain of Leptospira immunoglobulin-like protein B) (Leptospira interrogans serovar Pomona); assay: SPR; Biacore 3000; tag free LigB12 amine-coupled to a CM5 chip (1000 RU); FgαCC truncates 0-3 μM in PBS, 30 μL/min, 25°C; 1:1 Langmuir model
Factor XIII (FXIII) [6] = target: Factor XIII (FXIII) (UniProt P00488); assay: ELISA; inhibition: FXIII coated; tag free LigB12 or LigB4 0-10 μM, 1 h 37°C, unbound washed off; then 1 μM His-Sumo FgαCC, 1 h 37°C; anti-His-HRP; binding relative to wells without LigB
[7] = target: His-Sumo tagged FgαCC8 (human) (UniProt P02671); assay: ELISA; His-Sumo FgαCC8 captured by coated anti-His antibody; GST-LigB12 0-5 μM in phosphate buffer pH 6, 150 mM NaCl; anti-GST-HRP
[8] = target: His-Sumo tagged FgαCC8 (human) (UniProt P02671); assay: ELISA; His-Sumo FgαCC8 captured by coated anti-His antibody; GST-LigB12 0-5 μM in phosphate buffer pH 7, 75 mM NaCl; anti-GST-HRP
FgαCC2 (human) = FgαCC2 (human) (UniProt P02671); assay: ELISA; 1 μM FgαCC, FgαCC truncates or BSA coated on microtiter wells; GST-LigB12 0-3 μM, 1 h 37°C; anti-GST-HRP; KD = EC50 of a dose-response fit
FgαCC3 (human) = FgαCC3 (human) (UniProt P02671); assay: as above
[9] = target: FgαCC8 (C-terminal 23 amino acids of the fibrinogen α chain) (human) (UniProt P02671); assay: as above
[10] = target: FgαCC (C-terminal region of the fibrinogen αC domain) (human) (UniProt P02671); assay: as above
FgαCC5 (human) = FgαCC5 (human) (UniProt P02671); assay: as above
[11] = target: His-Sumo tagged FgαCC8 (human) (UniProt P02671); assay: ELISA; His-Sumo FgαCC8 captured by coated anti-His antibody; GST-LigB12 0-5 μM in phosphate buffer pH 6, 1200 mM NaCl; anti-GST-HRP
[12] = target: His-Sumo tagged FgαCC8 (human) (UniProt P02671); assay: ELISA; His-Sumo FgαCC8 captured by coated anti-His antibody; GST-LigB12 0-5 μM in phosphate buffer pH 7, 150 mM NaCl; anti-GST-HRP (Fig 5A and Fig 5B)
[13] = target: His-Sumo tagged FgαCC8 (human) (UniProt P02671); assay: ELISA; His-Sumo FgαCC8 captured by coated anti-His antibody; GST-LigB12 0-5 μM in phosphate buffer pH 6, 75 mM NaCl; anti-GST-HRP
[14] = target: His-Sumo tagged FgαCC8 (human) (UniProt P02671); assay: ELISA; His-Sumo FgαCC8 captured by coated anti-His antibody; GST-LigB12 0-5 μM in phosphate buffer pH 5, 150 mM NaCl; anti-GST-HRP
[15] = target: His-Sumo tagged FgαCC8 (human) (UniProt P02671); assay: ELISA; His-Sumo FgαCC8 captured by coated anti-His antibody; GST-LigB12 0-5 μM in phosphate buffer pH 7, 1200 mM NaCl; anti-GST-HRP
Factor XIII (FXIII) [16] = target: Factor XIII (FXIII) (UniProt P00488); assay: ELISA; FXIII, FgαCC8 (positive control) or BSA coated; GST-LigB12 0-3 μM; anti-GST-HRP
FgαCC8 I613A (human) = FgαCC8 I613A (human) (UniProt P02671); assay: ELISA; FgαCC8 WT, alanine mutants or BSA coated (1 μM/well); 5 μM GST-LigB12; anti-GST-HRP; relative binding (%) against WT
FgαCC8 R608A (human) = FgαCC8 R608A (human) (UniProt P02671); assay: as above
FgαCC8 L618A (human) = FgαCC8 L618A (human) (UniProt P02671); assay: as above
FgαCC8 R611A (human) = FgαCC8 R611A (human) (UniProt P02671); assay: as above
FgαCC8 H614A (human) = FgαCC8 H614A (human) (UniProt P02671); assay: as above
[17] = target: T1, GST tagged LigB12 (12th Ig-like domain of Leptospira immunoglobulin-like protein B); assay: ELISA; details: chain shown with the change; 5 μM GST tagged LigB12 added to coated wells (1 μM/well); parent: est. 100; read off a plot
T1 chain: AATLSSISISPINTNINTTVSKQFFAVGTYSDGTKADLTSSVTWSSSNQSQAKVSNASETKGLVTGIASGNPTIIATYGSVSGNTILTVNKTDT

UniProt P00488, sequence (P00488 whole entry, chain 1 of 2): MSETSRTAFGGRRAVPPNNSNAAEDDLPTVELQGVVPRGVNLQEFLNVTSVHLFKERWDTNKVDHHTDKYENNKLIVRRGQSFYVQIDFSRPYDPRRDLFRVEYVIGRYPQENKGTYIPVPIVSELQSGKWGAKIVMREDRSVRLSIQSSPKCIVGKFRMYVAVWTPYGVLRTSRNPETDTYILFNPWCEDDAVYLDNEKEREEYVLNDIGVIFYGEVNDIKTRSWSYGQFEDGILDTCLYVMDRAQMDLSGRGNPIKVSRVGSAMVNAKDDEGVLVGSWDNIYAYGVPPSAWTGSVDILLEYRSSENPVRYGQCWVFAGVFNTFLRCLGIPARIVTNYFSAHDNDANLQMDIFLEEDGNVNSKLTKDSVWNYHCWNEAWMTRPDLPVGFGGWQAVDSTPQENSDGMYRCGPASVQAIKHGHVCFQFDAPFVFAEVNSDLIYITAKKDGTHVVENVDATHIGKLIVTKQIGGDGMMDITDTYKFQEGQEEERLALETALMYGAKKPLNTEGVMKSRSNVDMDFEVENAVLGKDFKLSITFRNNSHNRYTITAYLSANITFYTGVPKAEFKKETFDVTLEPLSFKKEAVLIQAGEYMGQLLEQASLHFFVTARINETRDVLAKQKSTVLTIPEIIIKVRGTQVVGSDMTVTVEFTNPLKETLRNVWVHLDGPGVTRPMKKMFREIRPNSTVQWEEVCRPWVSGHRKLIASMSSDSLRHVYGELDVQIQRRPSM
UniProt P00488, sequence (P05160 21-661, chain 2 of 2, further chain): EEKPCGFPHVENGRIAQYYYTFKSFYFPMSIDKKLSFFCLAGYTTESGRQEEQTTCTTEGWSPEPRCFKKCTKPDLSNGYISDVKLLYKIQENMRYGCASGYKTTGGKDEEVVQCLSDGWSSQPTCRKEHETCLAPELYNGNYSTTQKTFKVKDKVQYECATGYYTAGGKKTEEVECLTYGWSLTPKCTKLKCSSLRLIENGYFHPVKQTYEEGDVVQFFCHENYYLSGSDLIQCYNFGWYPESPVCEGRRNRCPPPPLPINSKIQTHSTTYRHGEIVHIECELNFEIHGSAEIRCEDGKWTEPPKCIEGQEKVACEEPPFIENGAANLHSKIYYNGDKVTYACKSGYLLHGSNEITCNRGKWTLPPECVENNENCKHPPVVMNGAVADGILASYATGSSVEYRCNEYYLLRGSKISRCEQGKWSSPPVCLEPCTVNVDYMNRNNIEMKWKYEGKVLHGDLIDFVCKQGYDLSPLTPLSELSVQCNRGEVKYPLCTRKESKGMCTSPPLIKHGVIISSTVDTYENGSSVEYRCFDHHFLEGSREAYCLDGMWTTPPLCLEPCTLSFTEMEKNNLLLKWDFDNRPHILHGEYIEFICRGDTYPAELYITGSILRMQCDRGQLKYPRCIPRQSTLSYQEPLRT

Molecule: LigB12, tag free (12th Ig-like domain of Leptospira immunoglobulin-like protein B) P1040C; F1053C
- percent of parent [1]: 96 % of WT

Molecule: LigB12, tag free (12th Ig-like domain of Leptospira immunoglobulin-like protein B) E1088A
- percent of parent [1]: 90 % of WT

Molecule: GST tagged FgαCC8 (from UniProt P02671-2 622-644) (domain or fragment)
- percent reduction of binding relative to WT (D1066A and E1088A): 10 to 12%
- percent reduction of binding relative to WT [2]: > 30%
- percent reduction of binding relative to WT [3]: 46%
- percent reduction of binding relative to WT [4]: 51%

Molecule: LigB12, tag free (12th Ig-like domain of Leptospira immunoglobulin-like protein B) D1066A
- percent of parent [1]: 88 % of WT

Molecule: FgαCC5 (from UniProt P02671-2 579-644) (domain or fragment)
- Kd [5]: 1040 nM
- koff [5]: 0.0384 s⁻¹
- kon [5]: 36900 M⁻¹ s⁻¹

Molecule: FgαCC8 (C-terminal 23 amino acids of the fibrinogen α chain) (from UniProt P02671-2 622-644) (domain or fragment)
- Kd [5]: 959 nM
- koff [5]: 0.0357 s⁻¹
- kon [5]: 37200 M⁻¹ s⁻¹

Molecule: LigB12, tag free (12th Ig-like domain of Leptospira immunoglobulin-like protein B) (domain or fragment)
- percent reduction of FgαCC binding to FXIII at high LigB12 concentrations (fit of the dose inhibition curve) (Factor XIII (FXIII) [6]): 56.7%

Molecule: FgαCC3 (from UniProt P02671-2 526-644) (domain or fragment)
- Kd [5]: 704 nM
- koff [5]: 0.0339 s⁻¹
- kon [5]: 48100 M⁻¹ s⁻¹

Molecule: GST tagged LigB12 (12th Ig-like domain of Leptospira immunoglobulin-like protein B) (domain or fragment)
- Kd [7]: 470 nM
- Kd [8]: 460 nM
- fold over the negative control (BSA) at 3 μM LigB12 (FgαCC2 (human)): 2.5 fold
- Kd (FgαCC3 (human)): 510 nM
- Kd [9]: 760 nM
- Kd [10]: 370 nM
- Kd (FgαCC5 (human)): 580 nM
- Kd [11]: 220 nM
- Kd [12]: 820 nM and 620 nM
- Kd [13]: 1290 nM
- Kd [14]: 1830 nM
- Kd [15]: 6610 nM
- Kd (Factor XIII (FXIII) [16]): 150 nM
- percent reduction of binding relative to WT (FgαCC8 I613A (human)): 47%
- percent reduction of binding relative to WT (FgαCC8 R608A (human)): > 60%
- percent reduction of binding relative to WT (FgαCC8 L618A (human)): 12%
- percent reduction of binding relative to WT (FgαCC8 R611A (human)): > 60%
- percent reduction of binding relative to WT (FgαCC8 H614A (human)): 50%

B1: FgαCC8 (C-terminal 23 amino acids of the fibrinogen α chain), P02671-2 V610A (peptide)
chain: GHAKSRPARGIHTSPLGKPSLSP
- percent of parent [17]: 99 % of WT

B2: FgαCC8 (C-terminal 23 amino acids of the fibrinogen α chain), P02671-2 K606A (peptide)
chain: GHAASRPVRGIHTSPLGKPSLSP
- percent of parent [17]: 78 % of WT

B3: FgαCC8 (C-terminal 23 amino acids of the fibrinogen α chain), P02671-2 K620A (peptide)
chain: MADEAGSEADHEGTHSTARGHAK
- percent of parent [17]: 77 % of WT

— paper PMC5021285
